Article PMC9352680, “A comprehensive thermodynamic model for RNA binding by the Saccharomyces cerevisiae Pumilio protein PUF4”

T1: PUF4 RNA-binding domain (Saccharomyces cerevisiae, UniProt P25339 537-888)
T1 sequence: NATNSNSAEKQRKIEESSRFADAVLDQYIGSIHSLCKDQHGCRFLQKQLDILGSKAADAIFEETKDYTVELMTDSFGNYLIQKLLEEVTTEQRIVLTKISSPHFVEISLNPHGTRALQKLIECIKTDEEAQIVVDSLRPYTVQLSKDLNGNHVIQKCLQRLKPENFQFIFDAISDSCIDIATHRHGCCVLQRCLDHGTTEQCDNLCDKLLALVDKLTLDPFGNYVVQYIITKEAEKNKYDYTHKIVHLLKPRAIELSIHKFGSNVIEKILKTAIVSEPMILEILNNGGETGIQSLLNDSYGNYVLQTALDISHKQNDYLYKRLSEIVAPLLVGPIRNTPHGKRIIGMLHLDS


Target: T1, PUF4 RNA-binding domain
Assay: Mg; RNA-MaP; 20 mM Na-HEPES pH 7.4, 30 mM KOAc, 0.75 mM MgCl2, 0.1% Tween-20, 5% glycerol, 0.1 mg/mL BSA, 2 mM DTT; 25 C; 0.0125-409.6 nM protein
Details: tags: N-His6-TEV cleaved; C-SNAP kept, Cy3B-labelled; label: tethered on chip by stalled RNA polymerase

Binder	Kd
UCUCUUCAUGUAUAUUAACUCUCUU (ssRNA) [Id_ii_S1_P4E.2_K4.1_C4.2_[T-1A]_H4.1_A4.1_F4.1_T4.2_[G10A]_[T11C]]	1.15 nM
UCUCUUGUUAUAUAUUAGUUCUCUU (ssRNA) [Id_ii_S1_P4E.3_K4.2_C4.2_[C-2G]_H4.2_A4.1_F4.1_T4.2]	8.13 nM
UCUCUUCUUGUAUAUUAAUUCUCUU (ssRNA) [Id_ii_S1_P4E.2_K4.1_C4.2_H4.1_A4.1_F4.1_T4.2_[G10A]]	0.76 nM
UCUCUUCUUGUAUAUUAGUUCUCUU (ssRNA) [If_S1_P4E.2_K4.1_C4.2_H4.1_A4.1_F4.1_T4.2]	0.286 nM
UCUCUUUGUAUAUAUUAGGUCUCUU (ssRNA) [Id_ii_S1_P4E.3_K4.2_C4.2_[C-2T]_[T-1G]_H4.2_A4.1_F4.1_T4.2_[T11G]]	7.71 nM
UCUCUUCUUGUAUAUUAUUUCUCUU (ssRNA) [Id_ii_S1_P4E.2_K4.1_C4.2_H4.1_A4.1_F4.1_T4.2_[G10T]]	0.541 nM
UCUCUUUGUCAAUUAUCUCUU (ssRNA) [Ib_S1_P4E.1_K4.1_C4.1_H4.1_[A4C]_A4.1_[T5A]_F4.1_T4.1]	134 nM
UCUCUUGCUAUAUAUUAUCUCUCUU (ssRNA) [Id_ii_S1_P4E.3_K4.2_C4.2_[C-2G]_[T-1C]_H4.2_A4.1_F4.1_T4.2_[G10T]_[T11C]]	38.5 nM
UCUCUUUGUAUAUAUUAUUUCUCUU (ssRNA) [Id_ii_S1_P4E.3_K4.2_C4.2_[C-2T]_[T-1G]_H4.2_A4.1_F4.1_T4.2_[G10T]]	4.46 nM
UCUCUUGCUAUAUAUUAUAUCUCUU (ssRNA) [Id_ii_S1_P4E.3_K4.2_C4.2_[C-2G]_[T-1C]_H4.2_A4.1_F4.1_T4.2_[G10T]_[T11A]]	57.3 nM
UCUCUUUGUAUAUAUUAAGUCUCUU (ssRNA) [Id_ii_S1_P4E.3_K4.2_C4.2_[C-2T]_[T-1G]_H4.2_A4.1_F4.1_T4.2_[G10A]_[T11G]]	8.46 nM
UCUCUUCAUGUAUAUUAAUUCUCUU (ssRNA) [Id_ii_S1_P4E.2_K4.1_C4.2_[T-1A]_H4.1_A4.1_F4.1_T4.2_[G10A]]	1.1 nM
UCUCUUGCUAUAUAUUACGUCUCUU (ssRNA) [Id_ii_S1_P4E.3_K4.2_C4.2_[C-2G]_[T-1C]_H4.2_A4.1_F4.1_T4.2_[G10C]_[T11G]]	56.3 nM
UCUCUUCAUGUAUAUUAUCUCUCUU (ssRNA) [Id_ii_S1_P4E.2_K4.1_C4.2_[T-1A]_H4.1_A4.1_F4.1_T4.2_[G10T]_[T11C]]	0.967 nM
UCUCUUUGUAUAUAUUAAUUCUCUU (ssRNA) [Id_ii_S1_P4E.3_K4.2_C4.2_[C-2T]_[T-1G]_H4.2_A4.1_F4.1_T4.2_[G10A]]	4.75 nM
UCUCUUCUUGUAUAUUAUGUCUCUU (ssRNA) [Id_ii_S1_P4E.2_K4.1_C4.2_H4.1_A4.1_F4.1_T4.2_[G10T]_[T11G]]	0.808 nM
UCUCUUCAUGUAUAUUAGGUCUCUU (ssRNA) [Id_ii_S1_P4E.2_K4.1_C4.2_[T-1A]_H4.1_A4.1_F4.1_T4.2_[T11G]]	1.02 nM
UCUCUUGCUAUAUAUUACCUCUCUU (ssRNA) [Id_ii_S1_P4E.3_K4.2_C4.2_[C-2G]_[T-1C]_H4.2_A4.1_F4.1_T4.2_[G10C]_[T11C]]	61.4 nM
UCUCUUCUUGUAUAUUAUAUCUCUU (ssRNA) [Ie_S1_P3E.2_K3.1_C3.2_H3.1_A3.1_[+6T]_F3.1_T3.2]	0.724 nM
UCUCUUUGUCGAUUAUCUCUU (ssRNA) [Ib_S1_P4E.1_K4.1_C4.1_H4.1_[A4C]_A4.1_[T5G]_F4.1_T4.1]	336 nM
UCUCUUGCUAUAUAUUAAUUCUCUU (ssRNA) [Id_ii_S1_P4E.3_K4.2_C4.2_[C-2G]_[T-1C]_H4.2_A4.1_F4.1_T4.2_[G10A]]	70.2 nM
UCUCUUGCUAUAUAUUAACUCUCUU (ssRNA) [Id_ii_S1_P4E.3_K4.2_C4.2_[C-2G]_[T-1C]_H4.2_A4.1_F4.1_T4.2_[G10A]_[T11C]]	55 nM
UCUCUUCAUGUAUAUUACUUCUCUU (ssRNA) [Id_ii_S1_P4E.2_K4.1_C4.2_[T-1A]_H4.1_A4.1_F4.1_T4.2_[G10C]]	1.07 nM
UCUCUUCAUGUAUAUUAGUUCUCUU (ssRNA) [Id_ii_S1_P4E.2_K4.1_C4.2_[T-1A]_H4.1_A4.1_F4.1_T4.2]	0.326 nM
UCUCUUGUUAUAUAUUACUUCUCUU (ssRNA) [Id_ii_S1_P4E.3_K4.2_C4.2_[C-2G]_H4.2_A4.1_F4.1_T4.2_[G10C]]	16.9 nM

Binder	Kd
UCUCUUGUUAUAUAUUAAAUCUCUU (ssRNA) [Id_ii_S1_P4E.3_K4.2_C4.2_[C-2G]_H4.2_A4.1_F4.1_T4.2_[G10A]_[T11A]]	26.8 nM
UCUCUUUGUUCAUUAUCUCUU (ssRNA) [Ib_S1_P4E.1_K4.1_C4.1_H4.1_[A4T]_A4.1_[T5C]_F4.1_T4.1]	21.1 nM
UCUCUUCAUGUAUAUUAAGUCUCUU (ssRNA) [Id_ii_S1_P4E.2_K4.1_C4.2_[T-1A]_H4.1_A4.1_F4.1_T4.2_[G10A]_[T11G]]	2.41 nM
UCUCUUUGUAUAUAUUAACUCUCUU (ssRNA) [Id_ii_S1_P4E.3_K4.2_C4.2_[C-2T]_[T-1G]_H4.2_A4.1_F4.1_T4.2_[G10A]_[T11C]]	2.38 nM
UCUCUUCAUGUAUAUUAAAUCUCUU (ssRNA) [Id_ii_S1_P4E.2_K4.1_C4.2_[T-1A]_H4.1_A4.1_F4.1_T4.2_[G10A]_[T11A]]	1.57 nM
UCUCUUGCUAUAUAUUAAAUCUCUU (ssRNA) [Id_ii_S1_P4E.3_K4.2_C4.2_[C-2G]_[T-1C]_H4.2_A4.1_F4.1_T4.2_[G10A]_[T11A]]	126 nM
UCUCUUCUUGUAUAUUACUUCUCUU (ssRNA) [Id_ii_S1_P4E.2_K4.1_C4.2_H4.1_A4.1_F4.1_T4.2_[G10C]]	0.702 nM
UCUCUUGUUAUAUAUUAUUUCUCUU (ssRNA) [Id_ii_S1_P4E.3_K4.2_C4.2_[C-2G]_H4.2_A4.1_F4.1_T4.2_[G10T]]	22.3 nM
UCUCUUCAUGUAUAUUAGCUCUCUU (ssRNA) [Id_ii_S1_P4E.2_K4.1_C4.2_[T-1A]_H4.1_A4.1_F4.1_T4.2_[T11C]]	0.425 nM
UCUCUUGUUAUAUAUUAUCUCUCUU (ssRNA) [Id_ii_S1_P4E.3_K4.2_C4.2_[C-2G]_H4.2_A4.1_F4.1_T4.2_[G10T]_[T11C]]	12.5 nM
UCUCUUCUUGUAUAUUAAAUCUCUU (ssRNA) [Id_ii_S1_P4E.2_K4.1_C4.2_H4.1_A4.1_F4.1_T4.2_[G10A]_[T11A]]	0.971 nM
UCUCUUGUUAUAUAUUAUGUCUCUU (ssRNA) [Id_ii_S1_P4E.3_K4.2_C4.2_[C-2G]_H4.2_A4.1_F4.1_T4.2_[G10T]_[T11G]]	15.3 nM
UCUCUUCUUGUAUAUUAGCUCUCUU (ssRNA) [Id_ii_S1_P4E.2_K4.1_C4.2_H4.1_A4.1_F4.1_T4.2_[T11C]]	0.287 nM
UCUCUUGCUAUAUAUUACUUCUCUU (ssRNA) [Id_ii_S1_P4E.3_K4.2_C4.2_[C-2G]_[T-1C]_H4.2_A4.1_F4.1_T4.2_[G10C]]	30.6 nM
UCUCUUGCUAUAUAUUACAUCUCUU (ssRNA) [Id_ii_S1_P4E.3_K4.2_C4.2_[C-2G]_[T-1C]_H4.2_A4.1_F4.1_T4.2_[G10C]_[T11A]]	44.4 nM
UCUCUUUGUCCAUUAUCUCUU (ssRNA) [Ib_S1_P4E.1_K4.1_C4.1_H4.1_[A4C]_A4.1_[T5C]_F4.1_T4.1]	20.5 nM
UCUCUUCAUGUAUAUUAUUUCUCUU (ssRNA) [Id_ii_S1_P4E.2_K4.1_C4.2_[T-1A]_H4.1_A4.1_F4.1_T4.2_[G10T]]	0.915 nM
UCUCUUGUUAUAUAUUAAUUCUCUU (ssRNA) [Id_ii_S1_P4E.3_K4.2_C4.2_[C-2G]_H4.2_A4.1_F4.1_T4.2_[G10A]]	21 nM
UCUCUUGCUAUAUAUUAUUUCUCUU (ssRNA) [Id_ii_S1_P4E.3_K4.2_C4.2_[C-2G]_[T-1C]_H4.2_A4.1_F4.1_T4.2_[G10T]]	29.8 nM
UCUCUUUGUAUAUAUUAUCUCUCUU (ssRNA) [Id_ii_S1_P4E.3_K4.2_C4.2_[C-2T]_[T-1G]_H4.2_A4.1_F4.1_T4.2_[G10T]_[T11C]]	4.63 nM
UCUCUUCUUGUAUAUUACCUCUCUU (ssRNA) [Id_ii_S1_P4E.2_K4.1_C4.2_H4.1_A4.1_F4.1_T4.2_[G10C]_[T11C]]	0.733 nM
UCUCUUCUUGUAUAUUAACUCUCUU (ssRNA) [Id_ii_S1_P4E.2_K4.1_C4.2_H4.1_A4.1_F4.1_T4.2_[G10A]_[T11C]]	0.862 nM
UCUCUUGCUAUAUAUUAUGUCUCUU (ssRNA) [Id_ii_S1_P4E.3_K4.2_C4.2_[C-2G]_[T-1C]_H4.2_A4.1_F4.1_T4.2_[G10T]_[T11G]]	42 nM
UCUCUUGUUAUAUAUUACCUCUCUU (ssRNA) [Id_ii_S1_P4E.3_K4.2_C4.2_[C-2G]_H4.2_A4.1_F4.1_T4.2_[G10C]_[T11C]]	13 nM
